The subject of this assay is target antigen-expressing cell line. In words: Jurkat NFAT-GFP assay, coculture with target cell lines expressing the respective target antigen (summary Table 10A). As to conditions: relative % GFP positive cells; for NFAT-GFP ASSAY Positive Cell lines: NALM6: SIR-expressing Jurkat-NFAT-GFP cells cocultured with NALM6. The class given is cell-based, human. Details: key: The signs +/−, +, 2+ etc. after the name of the cell lines indicate the relative degree of positivity on the Jurkat-NFAT-GFP assay as measured by the % GFP positive cells; +: relative degree of positivity on the Jurkat-NFAT-GFP assay as measured by the % GFP positive cells; 2+: relative degree of positivity on the Jurkat-NFAT-GFP assay as measured by the % GFP positive cells. Put shortly:
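Read-out: % GFP+ cells by FACS. SIR-transduced, puromycin-selected Jurkat NFAT-GFP (IL-2 promoter reporter) cocultured ~4–18 h with target line, E:T ~1:2; parental cells as control; graded +/−, +, 2+ relative to parental.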

B1: 012417-I04 (protein)
chain: MALPVTALLLPLALLLHAARPLEGKPIPNPLLGLDSTGSGEDLKNVFPPEVAVFEPSKAEIAHTQKATLVCLATGFYPDHVELSWWVNGKEVHSGVCTDPQPLKEQPALNDSRYCLSSRLRVSATFWQNPRNHFRCQVQFYGLSENDEWTQDRAKPVTQIVSAEAWGRADCGITSASYHQGVLSATILYEILLGKATLYAVLVSALVLMAMVKRKDSRGRAKRSGSGATNFSLLKQAGDVEENPGPTSMALPVTALLLPLALLLHAARPDILLTQSPATLSLSPGERATLSCRASQSVDYDGDSYLNWYQQKPGQPPKLLIYDASNLVSGIPPRFSGSGSGTDFTLTISRLEPEDFAVYHCQQSTEDPWTFGGGTKLEIKGGGGSGGGGSGGGGSQVQLVESGGGLVEPGGSLRLSCMSGYAFSSYWMNWVRQMPGKGLEWMGQIWPGDGDTNYNPSLKSRVTITADESTSTAYMELSSLKAEDTAVYFCARRETTTVGRYYYAMDYWGQGTLVTVSSTREQKLISEEDGSGIQNPDPAVYQLRDSKSSDKSVCLFTDFDSQTNVSQSKDSDVYITDKCVLDMRSMDFKSNSAVAWSNKSDFACANAFNNSIIPEDTFFPSSDVPCDVKLVEKSFETDTNLNFQNLSVIGFRILLLKVAGFNLLMTLRLWSSRAKRSGSGVKQTLNFDLLKLAGDVESNPGPSRGHMTEYKPTVRLATRDDVPRAVRTLAAAFADYPATRHTVDPDRHIERVTELQELFLTRVGLDIGKVWVADDGAAVAVWTTPESVEAGAVFAEIGPRMAELSGSRLAAQQQMEGLLAPHRPKEPAWFLATVGVSPDHQGKGLGSAVVLPGVEAAERAGVPAFLETSAPRNLPFYERLGFTVTADVEVPEGPRTWCMTRKPGA
On to B1, for which the “NFAT-GFP ASSAY Positive Cell lines: RAJI” value (SIR-expressing Jurkat-NFAT-GFP cells cocultured with RAJI) is recorded as “RAJI (+/−)”.

B2: 041416-U01 (protein)
chain: MALPVTALLLPLALLLHAARPDIVLTQSPATLSLSPGDRATISCRASESVTILGSHLIYWYQQKPGQPPRLLIQLASNVQTGVPARFSGSGSRTDFTLTISSVEPEDFAVYYCLQSRTIPRTFGQGTKLEIKRLEGKPIPNPLLGLDSTGSGEDLKNVFPPEVAVFEPSKAEIAHTQKATLVCLATGFYPDHVELSWWVNGKEVHSGVCTDPQPLKEQPALNDSRYCLSSRLRVSATFWQNPRNHFRCQVQFYGLSENDEWTQDRAKPVTQIVSAEAWGRADCGITSASYHQGVLSATILYEILLGKATLYAVLVSALVLMAMVKRKDSRGRAKRSGSGATNFSLLKQAGDVEENPGPTSMDWIWRILFLVGAATGAHSFEQVQLVQSGPEVKKPGESVKISCKASGYTFRHYSMNWVKQAPGQGLKWMGRINTESGVPIYADDFKGRFSFTVDTSASTAYLEISSLTSEDTAVYFCSNDYLYSLDFWGQGTTLTVSSTREQKLISEEDGSGTPFPSLAPPIMLLVDGKQQMVVVCLVLDVAPPGLDSPIWFSAGNGSALDAFTYGPSPATDGTWTNLAHLSLPSEELASWEPLVCHTGPGAEGHSRSTQPMHLSGEASTARTCPQEPLRGTPGGALWLGVLRLLLFKLLLFDLLLTCSCLCDPAGPLPSPATTTRLRALGSHRLHPATETGGREATSSPRPQPRDRRWGDTPPGRKPGSPVRAKRSGSGVKQTLNFDLLKLAGDVESNPGPSRGHMTEYKPTVRLATRDDVPRAVRTLAAAFADYPATRHTVDPDRHIERVTELQELFLTRVGLDIGKVWVADDGAAVAVWTTPESVEAGAVFAEIGPRMAELSGSRLAAQQQMEGLLAPHRPKEPAWFLATVGVSPDHQGKGLGSAVVLPGVEAAERAGVPAFLETSAPRNLPFYERLGFTVTADVEVPEGPRTWCMTRKPGA
modifications: Polynucleotide encoding a Synthetic Immune Receptor (SIR)
For the molecule B2, the “NFAT-GFP ASSAY Positive Cell lines: L363” value (SIR-expressing Jurkat-NFAT-GFP cells cocultured with L363) is “L363 (2+), U266”. Under “SIR-expressing Jurkat-NFAT-GFP cells cocultured with U266”, the “NFAT-GFP ASSAY Positive Cell lines: U266” value is recorded as “(2+)”.

B3: 022817-L08 (protein)
chain: MALPVTALLLPLALLLHAARPDIVMTQSPATLSLSPGERATLSCRSSKSLQNVNGNTYLYWFQQKPGQSPQLLIYRMSNLNSGVPDRFSGSGSGTEFTLTISSLEPEDFAVYYCMQHLEYPITFGAGTKLEIKLEEQKLISEEDLGSGEDLKNVFPPEVAVFEPSKAEIAHTQKATLVCLATGFYPDHVELSWWVNGKEVHSGVCTDPQPLKEQPALNDSRYCLSSRLRVSATFWQNPRNHFRCQVQFYGLSENDEWTQDRAKPVTQIVSAEAWGRADCGITSASYHQGVLSATILYEILLGKATLYAVLVSALVLMAMVKRKDSRGRAKRSGSGATNFSLLKQAGDVEENPGPTSMDWIWRILFLVGAATGAHSFEEVQLVESGGGLVKPGGSLKLSCAASGYTFTSYVMHWVRQAPGKGLEWIGYINPYNDGTKYNEKFQGRVTISSDKSISTAYMELSSLRSEDTAMYYCARGTYYYGTRVFDYWGQGTLVTVSSTREQKLISEEDLGSGIQNPDPAVYQLRDSKSSDKSVCLFTDFDSQTNVSQSKDSDVYITDKCVLDMRSMDFKSNSAVAWSNKSDFACANAFNNSIIPEDTFFPSSDVPCDVKLVEKSFETDTNLNFQNLSVIGFRILLLKVAGFNLLMTLRLWSSRAKRSGSGVKQTLNFDLLKLAGDVESNPGPSRGHMTEYKPTVRLATRDDVPRAVRTLAAAFADYPATRHTVDPDRHIERVTELQELFLTRVGLDIGKVWVADDGAAVAVWTTPESVEAGAVFAEIGPRMAELSGSRLAAQQQMEGLLAPHRPKEPAWFLATVGVSPDHQGKGLGSAVVLPGVEAAERAGVPAFLETSAPRNLPFYERLGFTVTADVEVPEGPRTWCMTRKPGA
Turning to B3, the “NFAT-GFP ASSAY Positive Cell lines: NALM6” value is “(2+)”.

B4: 011317-B06 (protein)
chain: MALPVTALLLPLALLLHAARPLEQKLISEEDLGSGDRPDPAVYQLRDSKSSDKSVCLFTDFDSQTNVSQSKDSDVYITDKCVLDMRSMDFKSNSAVAWSNKSDFACANAFNNSIIPEDTFFPSPESSCDVKLVEKSFETDTNLNFQNLSVIGFRILLLKVAGFNLLMTLRLWSSSSRAKRSGSGVKQTLNFDLLKLAGDVESNPGPTSMALPVTALLLPLALLLHAARPDIVMTQSPATLSLSPGERATLSCRSSKSLQNVNGNTYLYWFQQKPGQSPQLLIYRMSNLNSGVPDRFSGSGSGTEFTLTISSLEPEDFAVYYCMQHLEYPITFGAGTKLEIKGGGGSGGGGSGGGGSEVQLVESGGGLVKPGGSLKLSCAASGYTFTSYVMHWVRQAPGKGLEWIGYINPYNDGTKYNEKFQGRVTISSDKSISTAYMELSSLRSEDTAMYYCARGTYYYGTRVFDYWGQGTLVTVSSTRGKPIPNPLLGLDSTGSGEDLKNVFPPEVAVFEPSEAEISHTQKATLVCLATGFYPDHVELSWWVNGKEVHSGVCTDPQPLKEQPALNDSRYCLSSRLRVSATFWQNPRNHFRCQVQFYGLSENDEWTQDRAKPVTQIVSAEAWGRADCGFTSESYQQGVLSATILYEILLGKATLYAVLVSALVLMAMVKRKDSRGRAKRSGSGATNFSLLKQAGDVEENPGPSRGHMTEYKPTVRLATRDDVPRAVRTLAAAFADYPATRHTVDPDRHIERVTELQELFLTRVGLDIGKVWVADDGAAVAVWTTPESVEAGAVFAEIGPRMAELSGSRLAAQQQMEGLLAPHRPKEPAWFLATVGVSPDHQGKGLGSAVVLPGVEAAERAGVPAFLETSAPRNLPFYERLGFTVTADVEVPEGPRTWCMTRKPGA
As for B4, the “NFAT-GFP ASSAY Positive Cell lines: NALM6” value is given as “(2+)”.

The values above are taken from patent US12269859B2, “Synthetic immune receptors and methods of use thereof” (Angeles Therapeutics, Inc., priority 2016, dated 2025).
